Experimental data: the supplement of paper PMC9112550, “Optimization of the antimicrobial peptide Bac7 by deep mutational scanning” (BMC Biology, 2022)

What follows are sequences tested on Escherichia coli TOP10 (assay: shrunken log2 fold change of peptide-encoding DNA abundance (4.5 h post-induction vs induction); higher = less antimicrobial activity (less host growth inhibition)). Details: time post-induction: 4.5 h; library: site-saturation at positions 5, 18, 19, 20.
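Further: peptides expressed intracellularly from a pBAD plasmid library in pooled LB shake-flask culture, induced with 0.3% L-arabinose, DNA abundance read by NGS, three biological replicates, DESeq2 with apeglm shrinkage.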

Sequence | shrunken log2 fold change
RRIRQRPPRLPRPRPRPRFAPRP | 0.141
RRIRWRPPRLPRPRPRPKHVPRP | 0.254
RRIRKRPPRLPRPRPRPGVVPRP | 0.755
RRIRERPPRLPRPRPRPMFSPRP | -0.104
RRIRLRPPRLPRPRPRPTRLPRP | 0.432
RRIRPRPPRLPRPRPRPTKSPRP | 0.777
RRIRDRPPRLPRPRPRPNQGPRP | 0.125
RRIRHRPPRLPRPRPRPTFMPRP | -0.102
RRIRNRPPRLPRPRPRPNIYPRP | -0.42
RRIRDRPPRLPRPRPRPMPLPRP | -0.0224
RRIRPRPPRLPRPRPRPHFDPRP | -0.0993
RRIRMRPPRLPRPRPRPKWPPRP | 1.18
RRIRYRPPRLPRPRPRPLINPRP | -0.279
RRIRYRPPRLPRPRPRPLAEPRP | -0.149
RRIRNRPPRLPRPRPRPNDPPRP | 0.188
RRIRTRPPRLPRPRPRPSHEPRP | -0.299
RRIRTRPPRLPRPRPRPECDPRP | -0.134
RRIRLRPPRLPRPRPRPLKPPRP | 0.171
RRIRERPPRLPRPRPRPNCSPRP | -0.202
RRIRERPPRLPRPRPRPLGMPRP | -0.294
RRIRERPPRLPRPRPRPHRWPRP | 0.0978
RRIRERPPRLPRPRPRPYCFPRP | -0.511
RRIRWRPPRLPRPRPRPGYCPRP | -0.407
RRIRFRPPRLPRPRPRPGEHPRP | -0.0294
RRIRERPPRLPRPRPRPPHAPRP | 0.229

Sequence | shrunken log2 fold change
RRIRVRPPRLPRPRPRPMESPRP | 0.156
RRIRGRPPRLPRPRPRPTGSPRP | 0.864
RRIRTRPPRLPRPRPRPGRDPRP | -0.0751
RRIRARPPRLPRPRPRPCNAPRP | 0.0237
RRIRQRPPRLPRPRPRPAECPRP | 0.17
RRIRPRPPRLPRPRPRPDFTPRP | -0.411
RRIRDRPPRLPRPRPRPIIHPRP | -0.483
RRIRNRPPRLPRPRPRPSVQPRP | -0.0954
RRIRKRPPRLPRPRPRPPIFPRP | 0.269
RRIRQRPPRLPRPRPRPSYSPRP | -0.298
RRIRCRPPRLPRPRPRPSCGPRP | -0.103
RRIRERPPRLPRPRPRPSRCPRP | 0.0232
RRIRQRPPRLPRPRPRPYCEPRP | -0.327
RRIRWRPPRLPRPRPRPIYPPRP | -0.0275
RRIRFRPPRLPRPRPRPKFMPRP | -0.542
RRIRGRPPRLPRPRPRPLLQPRP | 0.486
RRIRCRPPRLPRPRPRPPQVPRP | 0.204
RRIRLRPPRLPRPRPRPRISPRP | 0.0807
RRIRLRPPRLPRPRPRPENLPRP | 0.0256
RRIRCRPPRLPRPRPRPNIFPRP | -0.432
RRIRNRPPRLPRPRPRPRKRPRP | -0.0369
RRIRTRPPRLPRPRPRPHLCPRP | -0.17
RRIRKRPPRLPRPRPRPAMFPRP | 0.337
RRIRMRPPRLPRPRPRPVFQPRP | 0.168
RRIRMRPPRLPRPRPRPCWPPRP | 0.218

Sequence | shrunken log2 fold change
RRIRPRPPRLPRPRPRPRNRPRP | 0.516
RRIRLRPPRLPRPRPRPLKVPRP | -0.0503
RRIRIRPPRLPRPRPRPHDYPRP | -0.262
RRIRGRPPRLPRPRPRPPRDPRP | 1.12
RRIRDRPPRLPRPRPRPNCYPRP | -0.414
RRIRMRPPRLPRPRPRPIIVPRP | -0.0119
RRIRNRPPRLPRPRPRPKQCPRP | -0.293
RRIRARPPRLPRPRPRPCCFPRP | 0.274
RRIRWRPPRLPRPRPRPVINPRP | -0.0708
RRIRLRPPRLPRPRPRPHSRPRP | -0.0563
RRIRIRPPRLPRPRPRPNYEPRP | -0.396
RRIRARPPRLPRPRPRPVSPPRP | 0.664
RRIRPRPPRLPRPRPRPVFEPRP | 0.222
RRIRCRPPRLPRPRPRPKLPPRP | -0.0559
RRIRCRPPRLPRPRPRPITAPRP | -3.59e-05
RRIRVRPPRLPRPRPRPMIGPRP | -0.112
RRIRYRPPRLPRPRPRPRWIPRP | -0.553
RRIRFRPPRLPRPRPRPMDPPRP | 0.0482
RRIRRRPPRLPRPRPRPHPEPRP | 0.0463
RRIRARPPRLPRPRPRPHCPPRP | -0.0475
RRIRNRPPRLPRPRPRPFQMPRP | -0.673
RRIRDRPPRLPRPRPRPCLAPRP | 0.291
RRIRWRPPRLPRPRPRPYYLPRP | -0.843
RRIRCRPPRLPRPRPRPRQQPRP | -0.245
RRIRWRPPRLPRPRPRPHKLPRP | -0.135
